# Patent publication EP4806919A1 (Cells & Genes Biotech (Shanghai) Co., Ltd, dated 2026)
# “And” between values parts separate entries of the source, which are not always exact repeats. Equal values may be shown once.
# T1: Human BCMA-His recombinant protein (human, UniProt Q02223 1-54)
# T1 construct: Supplied reagent (Chengdu Shengshi Junlian Biotechnology, Cat# BCA-H522y); also called Cat# BCA-H522y; not shown: His tag
# T1 sequence (looked up): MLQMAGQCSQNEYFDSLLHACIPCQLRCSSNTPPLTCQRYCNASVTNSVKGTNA
# Key:
# [1] = target: BCMA on cell surface of BCMA-positive cells (NCI-H929; RPMI-8226) (UniProt Q02223); experiment: flow cytometry on NCI-H929 cells, control without nanobody
# [2] = target: Human BCMA-His recombinant protein (human) (UniProt Q02223); experiment: phage ELISA, antigen coated 100 ng/well, Anti-M13 HRP
# [3] = target: Cyno BCMA-His antigen (cyno (monkey)); experiment: as above
# [4] = target: BCMA on cell surface of BCMA-positive cells (NCI-H929; RPMI-8226) (UniProt Q02223); experiment: flow cytometry on NCI-H929 cells, antibody 10 ug/mL
# [5] = target: BCMA on cell surface of BCMA-positive cells (NCI-H929; RPMI-8226) (UniProt Q02223); experiment: flow cytometry on NCI-H929 cells, antibody 10 ug/ml, PE anti-human Fc
# [6] = target: T1, Human BCMA-His recombinant protein; experiment: ELISA, Human BCMA His coated 200 ng/well, anti-human Fc HRP
# [7] = target: T1, Human BCMA-His recombinant protein; experiment: ELISA, Human-BCMA-His coated 200 ng/well
# Chain of Cyno BCMA-His antigen (cyno (monkey)) (chain, as listed by the source): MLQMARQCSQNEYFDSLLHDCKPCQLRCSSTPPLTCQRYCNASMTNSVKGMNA
molecule,measurement,setting,value
hIgG Fc-PE (antibody),NCI-H929 Positive Rate%,[1],0.04%
"BC-HC-15 (positive phage clone, VHH displayed on phage) (VHH) VHH: EVQLVQSGGGSVQAGGSLRLSCAASGGDISSTFMGWFRQAPGKEREGVAAIYTGDGTTDYADSVKGRFTIAQDNAKNTVYLEMSRLKPEDTALYYCATGLDGSGSVFSPRSFRYWGQGTQVTVSS","OD (phage ELISA, human)",[2],2.11 OD450
same,"OD (phage ELISA, monkey)",[3],1.79 OD450
"BC-HC-15 nanobody, recombinant VHH-hIgG1Fc antibody (Fc fusion, also called VHH-hFC; not shown: human IgG1 Fc (hIgG1Fc) from the pVHH-hIgG1Fc expression plasmid) EVQLVQSGGGSVQAGGSLRLSCAASGGDISSTFMGWFRQAPGKEREGVAAIYTGDGTTDYADSVKGRFTIAQDNAKNTVYLEMSRLKPEDTALYYCATGLDGSGSVFSPRSFRYWGQGTQVTVSS",positive binding rate,[4],> 95%
same,NCI-H929 Positive Rate%,[5],99.9%
same,EC50,[6],0.605 µg/mL and 7.57 nM
same,EC50,[7],< 10 nM
